36 substances from patent US9156883B2, “Binding molecules for human factor VIII and factor VIII-like proteins” (DYAX CORP., priority 1999, dated 2015) can be followed below.

No end group written: not given here.

In one assay the target is T1, REFACTO® (factor VIII-like polypeptide, amino acids 1-743 and 1638 through 2332 of human factor VIII) (Homo sapiens, UniProt P00451).
T1 construct: amino acids 1-743 and 1638 through 2332 of human factor VIII; purchased Genetics Institute, Inc. (Cambridge, Mass.)
T1 sequence (P00451 20-762): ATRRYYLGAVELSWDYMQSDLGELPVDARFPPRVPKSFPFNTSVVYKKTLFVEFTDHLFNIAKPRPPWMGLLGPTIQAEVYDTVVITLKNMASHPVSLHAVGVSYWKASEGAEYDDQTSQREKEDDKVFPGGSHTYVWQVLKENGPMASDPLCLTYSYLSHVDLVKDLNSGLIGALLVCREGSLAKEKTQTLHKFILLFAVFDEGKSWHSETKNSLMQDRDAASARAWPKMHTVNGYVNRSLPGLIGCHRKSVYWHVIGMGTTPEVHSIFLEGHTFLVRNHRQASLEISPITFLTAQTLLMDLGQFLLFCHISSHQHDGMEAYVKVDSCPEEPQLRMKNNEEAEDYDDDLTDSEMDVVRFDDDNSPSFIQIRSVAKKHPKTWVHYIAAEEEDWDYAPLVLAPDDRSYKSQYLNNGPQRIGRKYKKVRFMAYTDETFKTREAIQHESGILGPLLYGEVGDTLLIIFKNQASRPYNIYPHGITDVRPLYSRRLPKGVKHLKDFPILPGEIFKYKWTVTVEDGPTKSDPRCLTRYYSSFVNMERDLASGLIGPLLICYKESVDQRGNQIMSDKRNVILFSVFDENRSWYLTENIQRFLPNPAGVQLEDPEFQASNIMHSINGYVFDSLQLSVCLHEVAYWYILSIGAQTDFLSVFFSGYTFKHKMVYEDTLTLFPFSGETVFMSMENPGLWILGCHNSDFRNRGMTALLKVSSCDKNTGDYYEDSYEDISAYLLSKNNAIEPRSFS
T1 sequence (P00451 1657-2351): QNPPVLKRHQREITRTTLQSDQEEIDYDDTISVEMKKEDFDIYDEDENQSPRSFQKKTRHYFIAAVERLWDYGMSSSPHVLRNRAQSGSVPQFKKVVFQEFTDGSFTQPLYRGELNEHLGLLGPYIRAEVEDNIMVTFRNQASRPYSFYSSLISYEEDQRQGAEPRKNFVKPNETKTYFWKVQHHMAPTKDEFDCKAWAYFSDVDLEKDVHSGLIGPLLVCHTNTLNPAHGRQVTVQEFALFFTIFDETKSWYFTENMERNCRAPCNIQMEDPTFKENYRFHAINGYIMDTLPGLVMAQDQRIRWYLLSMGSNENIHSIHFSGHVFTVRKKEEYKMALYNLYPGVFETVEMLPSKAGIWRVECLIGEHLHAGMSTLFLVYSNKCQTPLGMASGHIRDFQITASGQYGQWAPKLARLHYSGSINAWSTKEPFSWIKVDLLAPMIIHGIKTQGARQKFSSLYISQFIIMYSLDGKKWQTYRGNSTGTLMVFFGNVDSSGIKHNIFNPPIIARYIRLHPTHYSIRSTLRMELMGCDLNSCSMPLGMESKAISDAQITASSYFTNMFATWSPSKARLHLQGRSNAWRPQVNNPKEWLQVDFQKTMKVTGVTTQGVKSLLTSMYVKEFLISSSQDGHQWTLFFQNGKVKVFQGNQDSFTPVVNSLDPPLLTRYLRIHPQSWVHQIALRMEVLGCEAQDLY
Nature of the assay: Phage ELISA of third-round isolates for binding to the factor VIII target. Conditions: TN7 library phage isolates; HRP anti-M13, TMB, absorbance at OD630. The source says:
The techniques described above were employed to isolate high affinity binding molecules for ligands for recombinantly produced factor VIII-like polypeptide consisting of two segments of human factor VIII, i.e., amino acids 1-743 and 1638 through 2332 of human factor VIII, as described in U.S. Pat. No. 5,661,008 (Almstedt et al.), obtained under the commercial designation of REFACTO® from Genetics Institute, Inc. (Cambridge, Mass.). The REFACTO® target was provided at a concentration of about 530 μg/ml (7800 IU/ml) in 19.4 mM His, 300 mM NaCl, 3.4 mM CaCl2 and 0.1% Tween 80, pH 7.0.
Three libraries, designated TN7 (5×10^9 amino acid sequence diversity), TN8 (6×10^9 amino acid sequence diversity), and TN9 (5×10^9 amino acid sequence diversity), were constructed for expression of diversified polypeptides on M13 phage. Each library was screened for binders to purified REFACTO®. Each of the libraries was constructed to display a microprotein based on an 11- or 12-amino acid template. The TN7 library utilized a template sequence of Xaa-Xaa-Cys-Xaa-Xaa-Xaa-Xaa-Xaa-Cys-Xaa-Xaa; the TN8 library utilized a template sequence of Xaa-Xaa-Cys-Xaa-Xaa-Xaa-Xaa-Xaa-Xaa-Cys-Xaa-Xaa; the TN9 library utilized a template sequence of Xaa-Cys-Xaa-Xaa-Xaa-Xaa-Xaa-Xaa-Xaa-Cys-Xaa.
(§1) Three rounds of screenings were carried out for each library. At the conclusion of the third round of screening eluted phage were propagated, and individual isolates from each library (96 per elution condition) were selected randomly and tested by standard ELISA techniques for binding to the factor VIII target. Bound phage were detected with HRP conjugated anti-M13 polyclonal antibody (Pharmacia). TMB Peroxidase substrate was used for HRP in the ELISA detection mechanism. TMB substrate produces a blue color after peroxidase digestion. The color is quantitated by absorbance at OD630. Phage isolates that provided a significant signal (OD630>0.25) above background were considered positive clones.
Sequence data from the phage isolates were grouped by library and sorted according to the degree of similarity. The frequency at which any given sequence was obtained was noted since this indicates selection for a specific binder.
For “A06 (HSCGSWLFPCFA; Selected Phage Display Sequence)”, the ELISA signal worked out at 0.5.

Substance “A08 (FGCSWLFPCPF; Selected Phage Display Sequence)” displayed an ELISA signal of 0.4.

“A09 (FHCIGVWFCLH; Selected Phage Display Sequence)” yielded an ELISA signal of 0.1.

“C5/G10 (RLCSWVSPCSA; Selected Phage Display Sequence)” displayed an ELISA signal of 0.5.

“D03 (PHCNWLFPCSL; Selected Phage Display Sequence)” returned an ELISA signal of 0.2.

Still in this assay, the particulars now being: TN8 library phage isolates; HRP anti-M13, TMB, absorbance at OD630.
On to “05 (RGCGSWLRPCLD; Selected Phage Display Sequence) [compound 05]”, for which the ELISA signal came to 0.2.

“07 (HACGSWFRPCHA; Selected Phage Display Sequence) [compound 07]” came in with an ELISA signal of 0.4.

As to “08 (HPCGAWLRPCYN; Selected Phage Display Sequence) [compound 08]”, the ELISA signal is 1.0.

“10 (HPCGSWLRPCLH; Selected Phage Display Sequence) [compound 10]” had an ELISA signal of 1.0.

For the substance “11/G10 (HRCGSWLHPCLA; Selected Phage Display Sequence)”, the ELISA signal stood at 0.3.

Staying with this assay, now noted: TN9 library phage isolates; HRP anti-M13, TMB, absorbance at OD630.
Substance “03 (FCWVFNFSHCS; Selected Phage Display Sequence) [compound 03]” registered an ELISA signal of 1.1.

Take “06 (FCWVFPFHHCF; Selected Phage Display Sequence) [compound 06]”: the ELISA signal is given as 0.3.

In turn, “09 (FCWVFPFQHCA; Selected Phage Display Sequence) [compound 09]” registered an ELISA signal of 1.1.

In turn, “11 (FCHVFPFLHCD; Selected Phage Display Sequence) [compound 11]” displayed an ELISA signal of 0.2.

The target of another assay is T2, factor VIII target (Homo sapiens, UniProt P00451).
T2 construct: amino acids 1-743 and 1638 through 2332 of human factor VIII; purchased Genetics Institute, Inc. (Cambridge, Mass.)
T2 sequence (P00451 20-762): T1 sequence (P00451 20-762)
T2 sequence (P00451 1657-2351): T1 sequence (P00451 1657-2351)
Nature of the assay: Phage ELISA of high scoring isolates from rounds 2 and 3, with versus without target. Format: binding. The note with it: phage isolates from rounds 2 and 3. Here is the method:
During analysis of the specific polypeptides of the invention, three libraries were isolated and screened. […] These libraries were designated TN7/1, TN8/6 anf TN9/1. In addition, important consensus sequences were determined.
as §1, with “clones. […]” for “clones.”
Regarding “FCHVFNFVHCS (cysteine pairing not given here) [TN9 isolate 01]”, the “R, ratio of the ELISA score with target present to the ELISA score without target” value (“R, ratio … to the ELISA score without target” for short) is given as 8.

In the case of “FCWVFAFDHCH (Selected Phage Display Sequence) [Phe-Cys-Trp-Val-Phe-Ala-Phe-Asp-His-Cys-His]”, the “R, ratio … to the ELISA score without target” value is reported as 24.

Take “FCWVFNFSHCS (cysteine pairing not given here) [TN9 isolate 03]”: the “R, ratio … to the ELISA score without target” value came out at 24.

On to “FCWVFNWVHCD (Selected Phage Display Sequence) [Phe-Cys-Trp-Val-Phe-Asn-Trp-Val-His-Cys-Asp]”, for which the “R, ratio … to the ELISA score without target” value is reported as 14.

Regarding “FCWVFPFHHCF (cysteine pairing not given here) [TN9 isolate 06]”, the “R, ratio … to the ELISA score without target” value is reported as 6.

For the substance “FCWVFPFNHCD (cysteine pairing not given here) [TN9 isolate 02]”, the “R, ratio … to the ELISA score without target” value turned out to be 8.

On to “FCWVFPFNHCS (cysteine pairing not given here) [TN9 isolate 12]”, for which the “R, ratio … to the ELISA score without target” value turned out to be 18.

On to “FCWVFPFQHCA (cysteine pairing not given here) [TN9 isolate 09]”, for which the “R, ratio … to the ELISA score without target” value was determined as 24.

“FCWVFQFRHCH (Selected Phage Display Sequence) [Phe-Cys-Trp-Val-Phe-Q-Phe-Arg-His-Cys-His]”: the “R, ratio … to the ELISA score without target” value is recorded as 8.

For the substance “FGCSWLFPCPF (cysteine pairing not given here) [TN7 isolate A08]”, the “R, ratio … to the ELISA score without target” value stood at 8.

As for “HACGSWFRPCHA (cysteine pairing not given here) [TN8 isolate 07]”, the “R, ratio … to the ELISA score without target” value was 6.

For “HLCFAWFRPCDA (cysteine pairing not given here) [TN8 isolate 12]”, the “R, ratio … to the ELISA score without target” value stood at 8.

In the case of “HLCGAWFRPCDA (cysteine pairing not given here) [TN8 isolate 02]”, the “R, ratio … to the ELISA score without target” value was 6.

For “HPCGAWLRPCYN (cysteine pairing not given here) [TN8 isolate 08]”, the “R, ratio … to the ELISA score without target” value was determined as 20.

For “HPCGSWFNPCAH (cysteine pairing not given here) [TN8 isolate 02]”, the “R, ratio … to the ELISA score without target” value is recorded as 8.

Regarding “HPCGSWFRPCFH (cysteine pairing not given here) [TN8 isolate 02]”, the “R, ratio … to the ELISA score without target” value is listed as 16.

Turning to “HPCGSWLHPCAA (cysteine pairing not given here) [TN8 isolate 04]”, the “R, ratio … to the ELISA score without target” value came out at 6.

“HPCGSWLRPCLH (cysteine pairing not given here) [TN8 isolate 10]”: the “R, ratio … to the ELISA score without target” value was found to be 16.

On to “HRCGSWLHPCLA (cysteine pairing not given here) [TN8 isolate 11/G10]”, for which the “R, ratio … to the ELISA score without target” value worked out at 6.

As to “HSCGSWLFPCFA (cysteine pairing not given here) [TN7 isolate A06]”, the “R, ratio … to the ELISA score without target” value turned out to be 10.

Consider “RLCSWISPCSA (cysteine pairing not given here) [TN7 isolate D04]”, for which the “R, ratio … to the ELISA score without target” value amounted to 6.

As to “RLCSWVSPCSA (cysteine pairing not given here) [TN7 isolate C5/G10]”, the “R, ratio … to the ELISA score without target” value came out at 10.
